Experimental data published in US20150157741A1 (published 2015).
Ends that are not written are not given here.

Target: T1, Recombinant Human ErbB2/Fc Chimera (produced by R&D Systems) (human, UniProt P04626 23-652)
T1 construct: Bought reagent; Immobilised by amine coupling on a GLM chip, about 3,000 RU; also called HER2; Fc part of the bought chimera not given
Test: SPR (ProteOn XPR36), ErbB2/Fc amine-coupled on GLM chip, conjugate injected, 1:1 Langmuir fit
Method: The bonding property of the PEG including the capture molecule to HER2 serving as a target molecule was evaluated by a surface plasmon resonance method (SPR). In SPR, the measurement was performed using Proteon (registered trademark) XPR36 (produced by Bio-Rad Laboratories). Recombinant Human ErbB2/Fc Chimera (produced by R&D Systems) was dissolved into an acetate buffer (pH 5.0), and was immobilized by amine coupling to a carboxyl group on the GLM sensor chip surface. The amount of immobilization was about 3,000 RU (Resonance Unit). Subsequently, the PEG including the capture molecule was diluted to various concentrations with a phosphate buffer (pH 7.4) containing 0.005% of Tween20 and was injected into a flow cell at a flow rate of 50 microliters/min. As for the measurement times, an injection time (bonding) was 120 seconds and an elapsed time after stopping of injection (dissociation) was 120 seconds. In a bonding kinetic analysis experiment, sensor grams were analyzed using 1:1 Langmuir fitting model. The bonding property to HER2 was ensured with respect to every sample. In particular, strong bonding property was ensured with respect to scFv-PEG40, Af-PEG20, and Af-PEG40.

Binder: MARSGLGGKGSC(PEG ME‑200MA) (also: ICG-Sulfo-OSu conjugated, site not given here, Conjugate with PEG 20k and ICG) [pe-PEG20 (PEG ME-200MA modified with ICG and the HER2-binding peptide of Sequence No. 3)]
- Kd: 2600 nM

Binder: MARSGLGGKGSC(PEG ME‑400MA) (also: ICG-Sulfo-OSu conjugated, site not given here, Conjugate with PEG 40k and ICG) [pe-PEG40 (PEG ME-400MA modified with ICG and the HER2-binding peptide of Sequence No. 3)]
- Kd: 3100 nM
